According to patent EP0533846B1:

Key:
[1] = target: human ciliary neurotrophic factor receptor (CNTFR) (human); assay: indirect binding assay on COS cells transfected with clone I14: 1 ug/ml CNTF-myc, 9E10, 125I goat anti-mouse antibody; hand-held gamma counter
[2] = target: human ciliary neurotrophic factor receptor (CNTFR) (human); assay: indirect binding assay on COS cells transfected with clone I7: 1 ug/ml CNTF-myc, 9E10, 125I goat anti-mouse antibody; hand-held gamma counter
[3] = target: human ciliary neurotrophic factor receptor (CNTFR) (human); assay: indirect binding assay on COS cells transfected with clone I13: 1 ug/ml CNTF-myc, 9E10, 125I goat anti-mouse antibody; hand-held gamma counter
[4] = target: human ciliary neurotrophic factor receptor (CNTFR) (human); assay: indirect binding assay on COS cells transfected with clone I8: 1 ug/ml CNTF-myc, 9E10, 125I goat anti-mouse antibody; hand-held gamma counter
[5] = target: human ciliary neurotrophic factor receptor (CNTFR) (human); assay: indirect binding assay on COS cells transfected with clone I10: 1 ug/ml CNTF-myc, 9E10, 125I goat anti-mouse antibody; hand-held gamma counter
[6] = target: human ciliary neurotrophic factor receptor (CNTFR) (human); assay: indirect binding assay on COS cells transfected with clone I1: 1 ug/ml CNTF-myc, 9E10, 125I goat anti-mouse antibody; hand-held gamma counter
[7] = target: human ciliary neurotrophic factor receptor (CNTFR) (human); assay: indirect binding assay on COS cells transfected with clone I12: 1 ug/ml CNTF-myc, 9E10, 125I goat anti-mouse antibody; hand-held gamma counter
[8] = target: human ciliary neurotrophic factor receptor (CNTFR) (human); assay: indirect binding: CNTF-myc, 9E10 antibody, FITC-labelled goat anti-mouse antibody, FACS on transfected COS cells
[9] = target: human ciliary neurotrophic factor receptor (CNTFR) (human); assay: indirect binding assay on COS cells transfected with clone I5: 1 ug/ml CNTF-myc, 9E10, 125I goat anti-mouse antibody; hand-held gamma counter
[10] = target: human ciliary neurotrophic factor receptor (CNTFR) (human); assay: indirect binding assay on COS cells transfected with clone I11: 1 ug/ml CNTF-myc, 9E10, 125I goat anti-mouse antibody; hand-held gamma counter
[11] = target: human ciliary neurotrophic factor receptor (CNTFR) (human); assay: indirect binding assay on COS cells transfected with clone I6: 1 ug/ml CNTF-myc, 9E10, 125I goat anti-mouse antibody; hand-held gamma counter
[12] = target: human ciliary neurotrophic factor receptor (CNTFR) (human); assay: indirect binding assay on COS cells transfected with clone I2: 1 ug/ml CNTF-myc, 9E10, 125I goat anti-mouse antibody; hand-held gamma counter
[13] = target: human ciliary neurotrophic factor receptor (CNTFR) (human); assay: indirect binding assay on COS cells transfected with clone I9: 1 ug/ml CNTF-myc, 9E10, 125I goat anti-mouse antibody; hand-held gamma counter
[14] = target: human ciliary neurotrophic factor receptor (CNTFR) (human); assay: indirect binding assay on COS cells transfected with clone I15: 1 ug/ml CNTF-myc, 9E10, 125I goat anti-mouse antibody; hand-held gamma counter
[15] = target: human ciliary neurotrophic factor receptor (CNTFR) (human); assay: indirect binding assay on COS cells transfected with clone I4: 1 ug/ml CNTF-myc, 9E10, 125I goat anti-mouse antibody; hand-held gamma counter
[16] = target: human ciliary neurotrophic factor receptor (CNTFR) (human); assay: monolayer binding of 2.16 nM 125I-CNTF to SH-SY5Y cells (3 x 10^5 cells/well, endogenous receptor); specific cpm per cell
[17] = target: human ciliary neurotrophic factor receptor (CNTFR) (human); assay: approx. 100 pM iodinated CNTF on SH-SY5Y cells; control pre-treatment without PI-PLC; no cold excess
[18] = target: human ciliary neurotrophic factor receptor (CNTFR) (human); assay: monolayer binding of 2.16 nM 125I-CNTF to SH-SY5Y cells (3 x 10^5 cells/well, endogenous receptor); cpm with 1000-fold excess unlabelled CNTF subtracted
[19] = target: human ciliary neurotrophic factor receptor (CNTFR) (human); assay: iodinated CNTF bound to SH-SY5Y cells first, then incubation without PI-PLC; with excess unlabelled CNTF (non-specific)
[20] = target: human ciliary neurotrophic factor receptor (CNTFR) (human); assay: iodinated CNTF bound to SH-SY5Y cells first, then PI-PLC 500 mU/ml for 45 min; no cold excess
[21] = target: human ciliary neurotrophic factor receptor (CNTFR) (human); assay: iodinated CNTF bound to SH-SY5Y cells first, then incubation without PI-PLC; no cold excess
[22] = target: human ciliary neurotrophic factor receptor (CNTFR) (human); assay: approx. 100 pM iodinated CNTF on SH-SY5Y cells pre-treated with PI-PLC 500 mU/ml (receptor released before binding); no cold excess
[23] = target: human ciliary neurotrophic factor receptor (CNTFR) (human); assay: monolayer binding of 2.16 nM 125I-CNTF to COS cells transfected with clone I2 (6.5 x 10^4 cells/well); specific cpm per cell
[24] = target: human ciliary neurotrophic factor receptor (CNTFR) (human); assay: approx. 100 pM iodinated CNTF on SH-SY5Y cells; control pre-treatment without PI-PLC; with thousand-fold excess unlabelled CNTF (non-specific)
[25] = target: human ciliary neurotrophic factor receptor (CNTFR) (human); assay: monolayer binding of 2.16 nM 125I-CNTF to COS cells transfected with clone I2 (6.5 x 10^4 cells/well); cpm with 1000-fold excess unlabelled CNTF subtracted
[26] = target: human ciliary neurotrophic factor receptor (CNTFR) (human); assay: iodinated CNTF bound to SH-SY5Y cells first, then PI-PLC 500 mU/ml for 45 min; with excess unlabelled CNTF (non-specific)
[27] = target: human ciliary neurotrophic factor receptor (CNTFR) (human); assay: approx. 100 pM iodinated CNTF on SH-SY5Y cells pre-treated with PI-PLC 500 mU/ml; with thousand-fold excess unlabelled CNTF (non-specific)

With “CNTF/myc (CNTF carrying a C-terminal ten amino acid c-myc epitope tag) (ligand)” the CPM bound (125I-GaM) [1] was 10000 CPM, the CPM bound (125I-GaM) [2] was 6000 CPM and the CPM bound (125I-GaM) [3] was 8000 CPM. The CPM bound (125I-GaM) [4] was 7500 CPM, the CPM bound (125I-GaM) [5] was 4500 CPM and the CPM bound (125I-GaM) [6] was 2000 CPM. It also gave a CPM bound (125I-GaM) [7] of 5000 CPM, a fold increase (FACS fluorescence) against cells transfected with negative clones [8] of 100 fold and a CPM bound (125I-GaM) [9] of 2000 CPM. For the same substance, the CPM bound (125I-GaM) [10] was 7000 CPM, the CPM bound (125I-GaM) [11] was 1600 CPM and the CPM bound (125I-GaM) [12] was 8500 CPM. The CPM bound (125I-GaM) [13] was 7000 CPM, the CPM bound (125I-GaM) [14] was 8000 CPM and the CPM bound (125I-GaM) [15] was 9000 CPM.

With “125I-hCNTF (iodinated human ciliary neurotrophic factor) (from UniProt P26441 1-200) (ligand)” the cpm/cell [16] was 0.00428 cpm/cell, the CPM Bound [17] was 1440 CPM and the Specific cpm bound [18] was 1280 cpm. It also gave a CPM Bound [19] of 310 CPM, a CPM Bound [20] of 1060 CPM and a CPM Bound [21] of 1250 CPM. It also gave a CPM Bound [22] of 420 CPM, a cpm/cell [23] of 0.0217 cpm/cell and a CPM Bound [24] of 370 CPM. The Specific cpm bound [25] was 1410 cpm, the CPM Bound [26] was 300 CPM and the CPM Bound [27] was 310 CPM.
